B1: CYFP1_HUMAN (protein, UniProt Q7L576 1-1253, looked up)
Cytoplasmic FMR1-interacting …: MAAQVTLEDALSNVDLLEELPLPDQQPCIEPPPSSLLYQPNFNTNFEDRNAFVTGIARYIEQATVHSSMNEMLEEGQEYAVMLYTWRSCSRAIPQVKCNEQPNRVEIYEKTVEVLEPEVTKLMNFMYFQRNAIERFCGEVRRLCHAERRKDFVSEAYLITLGKFINMFAVLDELKNMKCSVKNDHSAYKRAAQFLRKMADPQSIQESQNLSMFLANHNKITQSLQQQLEVISGYEELLADIVNLCVDYYENRMYLTPSEKHMLLKVMGFGLYLMDGSVSNIYKLDAKKRINLSKIDKYFKQLQVVPLFGDMQIELARYIKTSAHYEENKSRWTCTSSGSSPQYNICEQMIQIREDHMRFISELARYSNSEVVTGSGRQEAQKTDAEYRKLFDLALQGLQLLSQWSAHVMEVYSWKLVHPTDKYSNKDCPDSAEEYERATRYNYTSEEKFALVEVIAMIKGLQVLMGRMESVFNHAIRHTVYAALQDFSQVTLREPLRQAIKKKKNVIQSVLQAIRKTVCDWETGHEPFNDPALRGEKDPKSGFDIKVPRRAVGPSSTQLYMVRTMLESLIADKSGSKKTLRSSLEGPTILDIEKFHRESFFYTHLINFSETLQQCCDLSQLWFREFFLELTMGRRIQFPIEMSMPWILTDHILETKEASMMEYVLYSLDLYNDSAHYALTRFNKQFLYDEIEAEVNLCFDQFVYKLADQIFAYYKVMAGSLLLDKRLRSECKNQGATIHLPPSNRYETLLKQRHVQLLGRSIDLNRLITQRVSAAMYKSLELAIGRFESEDLTSIVELDGLLEINRMTHKLLSRYLTLDGFDAMFREANHNVSAPYGRITLHVFWELNYDFLPNYCYNGSTNRFVRTVLPFSQEFQRDKQPNAQPQYLHGSKALNLAYSSIYGSYRNFVGPPHFQVICRLLGYQGIAVVMEELLKVVKSLLQGTILQYVKTLMEVMPKICRLPRHEYGSPGILEFFHHQLKDIVEYAELKTVCFQNLREVGNAILFCLLIEQSLSLEEVCDLLHAAPFQNILPRVHVKEGERLDAKMKRLESKYAPLHLVPLIERLGTPQQIAIAREGDLLTKERLCCGLSMFEVILTRIRSFLDDPIWRGPLPSNGVMHVDECVEFHRLWSAMQFVYCIPVGTHEFTVEQCFGDGLHWAGCMIIVLLGQQRRFAVLDFCYHLLKVQKHDGKDEIIKNVPLKKMVERIRKFQILNDEIITILDKYLKSGDGEGTPVEHVRCFQPPIHQSLASS
B2: DSG1_HUMAN (protein, UniProt Q02413 50-1049, looked up)
Desmoglein-1: EWIKFAAACREGEDNSKRNPIAKIHSDCAANQQVTYRISGVGIDQPPYGIFVINQKTGEINITSIVDREVTPFFIIYCRALNSMGQDLERPLELRVRVLDINDNPPVFSMATFAGQIEENSNANTLVMILNATDADEPNNLNSKIAFKIIRQEPSDSPMFIINRNTGEIRTMNNFLDREQYGQYALAVRGSDRDGGADGMSAECECNIKILDVNDNIPYMEQSSYTIEIQENTLNSNLLEIRVIDLDEEFSANWMAVIFFISGNEGNWFEIEMNERTNVGILKVVKPLDYEAMQSLQLSIGVRNKAEFHHSIMSQYKLKASAISVTVLNVIEGPVFRPGSKTYVVTGNMGSNDKVGDFVATDLDTGRPSTTVRYVMGNNPADLLAVDSRTGKLTLKNKVTKEQYNMLGGKYQGTILSIDDNLQRTCTGTININIQSFGNDDRTNTEPNTKITTNTGRQESTSSTNYDTSTTSTDSSQVYSSEPGNGAKDLLSDNVHFGPAGIGLLIMGFLVLGLVPFLMICCDCGGAPRSAAGFEPVPECSDGAIHSWAVEGPQPEPRDITTVIPQIPPDNANIIECIDNSGVYTNEYGGREMQDLGGGERMTGFELTEGVKTSGMPEICQEYSGTLRRNSMRECREGGLNMNFMESYFCQKAYAYADEDEGRPSNDCLLIYDIEGVGSPAGSVGCCSFIGEDLDDSFLDTLGPKFKKLADISLGKESYPDLDPSWPPQSTEPVCLPQETEPVVSGHPPISPHFGTTTVISESTYPSGPGVLHPKPILDPLGYGNVTVTESYTTSDTLKPSVHVHDNRPASNVVVTERVVGPISGADLHGMLEMPDLRDGSNVIVTERVIAPSSSLPTSLTIHHPRESSNVVVTERVIQPTSGMIGSLSMHPELANAHNVIVTERVVSGAGVTGISGTTGISGGIGSSGLVGTSMGAGSGALSGAGISGGGIGLSSLGGTASIGHMRSSSDHHFNQTIGSASPSTARSRITKYSTVQYSK
B3: HACD3_HUMAN (protein, UniProt Q9P035 1-362, looked up)
Very-long-chain …: MENQVLTPHVYWAQRHRELYLRVELSDVQNPAISITENVLHFKAQGHGAKGDNVYEFHLEFLDLVKPEPVYKLTQRQVNITVQKKVSQWWERLTKQEKRPLFLAPDFDRWLDESDAEMELRAKEEERLNKLRLESEGSPETLTNLRKGYLFMYNLVQFLGFSWIFVNLTVRFCILGKESFYDTFHTVADMMYFCQMLAVVETINAAIGVTTSPVLPSLIQLLGRNFILFIIFGTMEEMQNKAVVFFVFYLWSAIEIFRYSFYMLTCIDMDWKVLTWLRYTLWIPLYPLGCLAEAVSVIQSIPIFNETGRFSFTLPYPVKIKVRFSFFLQIYLIMIFLGLYINFRHLYKQRRRRYGQKKKKIH
B4: CBPD_HUMAN (protein, UniProt O75976 32-1380, looked up)
Carboxypeptidase D: AHIKKAEATTTTTSAGAEAAEGQFDRYYHEEELESALREAAAAGLPGLARLFSIGRSVEGRPLWVLRLTAGLGSLIPEGDAGPDAAGPDAAGPLLPGRPQVKLVGNMHGDETVSRQVLIYLARELAAGYRRGDPRLVRLLNTTDVYLLPSLNPDGFERAREGDCGFGDGGPSGASGRDNSRGRDLNRSFPDQFSTGEPPALDEVPEVRALIEWIRRNKFVLSGNLHGGSVVASYPFDDSPEHKATGIYSKTSDDEVFKYLAKAYASNHPIMKTGEPHCPGDEDETFKDGITNGAHWYDVEGGMQDYNYVWANCFEITLELSCCKYPPASQLRQEWENNRESLITLIEKVHIGVKGFVKDSITGSGLENATISVAGINHNITTGRFGDFYRLLVPGTYNLTVVLTGYMPLTVTNVVVKEGPATEVDFSLRPTVTSVIPDTTEAVSTASTVAIPNILSGTSSSYQPIQPKDFHHHHFPDMEIFLRRFANEYPNITRLYSLGKSVESRELYVMEISDNPGVHEPGEPEFKYIGNMHGNEVVGRELLLNLIEYLCKNFGTDPEVTDLVHNTRIHLMPSMNPDGYEKSQEGDSISVIGRNNSNNFDLNRNFPDQFVQITDPTQPETIAVMSWMKSYPFVLSANLHGGSLVVNYPFDDDEQGLATYSKSPDDAVFQQIALSYSKENSQMFQGRPCKNMYPNEYFPHGITNGASWYNVPGGMQDWNYLQTNCFEVTIELGCVKYPLEKELPNFWEQNRRSLIQFMKQVHQGVRGFVLDATDGRGILNATISVAEINHPVTTYKTGDYWRLLVPGTYKITASARGYNPVTKNVTVKSEGAIQVNFTLVRSSTDSNNESKKGKGASSSTNDASDPTTKEFETLIKDLSAENGLESLMLRSSSNLALALYRYHSYKDLSEFLRGLVMNYPHITNLTNLGQSTEYRHIWSLEISNKPNVSEPEEPKIRFVAGIHGNAPVGTELLLALAEFLCLNYKKNPAVTQLVDRTRIVIVPSLNPDGRERAQEKDCTSKIGQTNARGKDLDTDFTNNASQPETKAIIENLIQKQDFSLSVALDGGSMLVTYPYDKPVQTVENKETLKHLASLYANNHPSMHMGQPSCPNKSDENIPGGVMRGAEWHSHLGSMKDYSVTYGHCPEITVYTSCCYFPSAARLPSLWADNKRSLLSMLVEVHKGVHGFVKDKTGKPISKAVIVLNEGIKVQTKEGGYFHVLLAPGVHNIIAIADGYQQQHSQVFVHHDAASSVVIVFDTDNRIFGLPRELVVTVSGATMSALILTACIIWCICSIKSNRHKDGFHRLRQHHDEYEDEIRMMSTGSKKSLLSHEFQDETDTEEETLYSSKH
B5: SF3A1_HUMAN (protein, UniProt Q15459 2-793, looked up)
Splicing factor 3A subunit 1: PAGPVQAVPPPPPVPTEPKQPTEEEASSKEDSAPSKPVVGIIYPPPEVRNIVDKTASFVARNGPEFEARIRQNEINNPKFNFLNPNDPYHAYYRHKVSEFKEGKAQEPSAAIPKVMQQQQQTTQQQLPQKVQAQVIQETIVPKEPPPEFEFIADPPSISAFDLDVVKLTAQFVARNGRQFLTQLMQKEQRNYQFDFLRPQHSLFNYFTKLVEQYTKILIPPKGLFSKLKKEAENPREVLDQVCYRVEWAKFQERERKKEEEEKEKERVAYAQIDWHDFVVVETVDFQPNEQGNFPPPTTPEELGARILIQERYEKFGESEEVEMEVESDEEDDKQEKAEEPPSQLDQDTQVQDMDEGSDDEEEGQKVPPPPETPMPPPLPPTPDQVIVRKDYDPKASKPLPPAPAPDEYLVSPITGEKIPASKMQEHMRIGLLDPRWLEQRDRSIREKQSDDEVYAPGLDIESSLKQLAERRTDIFGVEETAIGKKIGEEEIQKPEEKVTWDGHSGSMARTQQAAQANITLQEQIEAIHKAKGLVPEDDTKEKIGPSKPNEIPQQPPPPSSATNIPSSAPPITSVPRPPTMPPPVRTTVVSAVPVMPRPPMASVVRLPPGSVIAPMPPIIHAPRINVVPMPPSAPPIMAPRPPPMIVPTAFVPAPPVAPVPAPAPMPPVHPPPPMEDEPTSKKLKTEDSLMPEEEFLRRNKGPVSIKVQVPNMQDKTEWKLNGQVLVFTLPLTDQVSVIKVKIHEATGMPAGKQKLQYEGIFIKDSNSLAYYNMANGAVIHLALKERGGRKK
B6: DDX42_HUMAN (protein, UniProt Q86XP3 1-938, looked up)
ATP-dependent RNA helicase …: MNWNKGGPGTKRGFGFGGFAISAGKKEEPKLPQQSHSAFGATSSSSGFGKSAPPQLPSFYKIGSKRANFDEENAYFEDEEEDSSNVDLPYIPAENSPTRQQFHSKPVDSDSDDDPLEAFMAEVEDQAARDMKRLEEKDKERKNVKGIRDDIEEEDDQEAYFRYMAENPTAGVVQEEEEDNLEYDSDGNPIAPTKKIIDPLPPIDHSEIDYPPFEKNFYNEHEEITNLTPQQLIDLRHKLNLRVSGAAPPRPGSSFAHFGFDEQLMHQIRKSEYTQPTPIQCQGVPVALSGRDMIGIAKTGSGKTAAFIWPMLIHIMDQKELEPGDGPIAVIVCPTRELCQQIHAECKRFGKAYNLRSVAVYGGGSMWEQAKALQEGAEIVVCTPGRLIDHVKKKATNLQRVSYLVFDEADRMFDMGFEYQVRSIASHVRPDRQTLLFSATFRKKIEKLARDILIDPIRVVQGDIGEANEDVTQIVEILHSGPSKWNWLTRRLVEFTSSGSVLLFVTKKANAEELANNLKQEGHNLGLLHGDMDQSERNKVISDFKKKDIPVLVATDVAARGLDIPSIKTVINYDVARDIDTHTHRIGRTGRAGEKGVAYTLLTPKDSNFAGDLVRNLEGANQHVSKELLDLAMQNAWFRKSRFKGGKGKKLNIGGGGLGYRERPGLGSENMDRGNNNVMSNYEAYKPSTGAMGDRLTAMKAAFQSQYKSHFVAASLSNQKAGSSAAGASGWTSAGSLNSVPTNSAQQGHNSPDSPVTSAAKGIPGFGNTGNISGAPVTYPSAGAQGVNNTASGNNSREGTGGSNGKRERYTENRGSSRHSHGETGNRHSDSPRHGDGGRHGDGYRHPESSSRHTDGHRHGENRHGGSAGRHGENRGANDGRNGESRKEAFNRESKMEPKMEPKVDSSKMDKVDSKTDKTADGFAVPEPPKRKKSRWDS

Test system: KDM4A-I71AzF
Experiment: CASI: photo-crosslinking with HEK293T cell extracts, StrepTactin enrichment and LC-MS/MS proteomics;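 also: lysates from HEK293T cells pretreated with a KDM4 inhibitor to raise proteome methylation, affinity-purified after ±UV, gel-resolved, trypsin-digested, with exclusive unique peptides per protein averaged per condition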
Assay type: binding, human
Details: sheet "Final results but with 0.01"

Molecule	Fold change (+UV/-UV)
B1	0.6
B2	2
B3	0.6667
B4	1
B5	0
B6	0.6

Source: article PMC10540216, “Activity Guided Azide-methyllysine Photo-trapping for Substrate Profiling of Lysine Demethylases” (Journal of the American Chemical Society, 2023)
